The series in a line: label from the status in PepcDB records.
Take “MSEPIPPFRYAPIVCSEQSTIVAEFVPEASGVREAGYQSEAELEAAFIKQLQGQAYEYLPITSEAALLANLRRQLEKLNKVTLSDAEWEGFFSTCIAGAHDGIVEKTARIQENHVQVLKRDDGTIKNMCLLDKVNIHNNTLQVMNQYAVEGARANRYDVTVLVNGLPMVHVELKRRGVDIREAFNQINRYQRDSFWAGSGLLDYVQLFVISNGTLTKYYSNTVRAGHVEEQSNKRSKSKTSNSFSFAIWWADAKNQPITELTSFTKTFFAKHSLLNVLTKYCVFNAKRKLLVMRPYQIVAAERILQRIVIATHQQQLGTVAAGGYIWHTTGSGKTLTSFKVAQLACGLGVIDKVLFVVDRKDLDYQTMREYESFQKGAANSNTSTAVLQRQLEDSDVHIIITTIQKLSRFVAKHKQHPVYGAHVVVIFDECHRSQFGDMHTKITRAFQRYHLFGFTGTPIFAENAGSTQNPMRRTTQQTFGDTLHTYTIVDAINDKTVLPFRIDYINTIKSQPNIKDKKVAAIDTERALLAPERIRQIVSYIREHFDQKTKRASIYRHEGQRLAGFNSLLATASIDAAKRYYAELMAQQKELPEARRLKVGLIYSVAANEGGGDGGLGEEEFETEGLDQESRNFLEAAIQDYNALFGTSFDTSADKFQNYYKDVSERLKKRKLDILIVVNMFLTGFDATTLNTLWVDKPLKAHGLIQAYSRTNRILNSVKSYGNIVSFRNLEQETNEALALFGNKDAKGIVLLRPYAEYYKQYEERVGELMAAFPLGKAIVGEAAQKAFITLFGSILRLKNILTAFDDFGGQEILTEREFQDYQSLYLNLYAEFRSASAAEKESINDDVVFEIELIKQVEINVDFILLLVEQYVKKKGTGEDKDIRATIERAIHSSPSLRNKKELIEQFVDAVSMKAKVDAQWQAFVAVKQSQELEGIIAEENLNAEAAREFIGNAFRDGGIPAMGTAITKVLPPVSRFSKNNGHAAKKQAVLDKFATFFERYFGLV”: the protein production entry is “failed”.

Consider “MADLYTVVSSIILLFIVLDPVGVSPYVASIVARRPEGERERIVRTALASAGAILVAFTLIGVAVLDILGVSMDEFKVAAGLLLLIYATADLFEIKIGYSEPSGDEVAIFPLATPLLAGPGSIATVMYIMGSSGIAVALIAILVNLVLAYPILHASLKLVRLLGRHGSLLVAKFTAFLMVGFAVSIIFDGLRGIVPGVFS”, for which the protein production entry was “failed”.

For “MKIAIVRLSALGDIIVSAVFLAVIKECLPNAQIEWFVDERFSAILEHSPYIDKLHPIALKSALKTLNPLKIFKLFKSLRAYEYDIIIDMQGLVKSALITQMLKAPKKVGFDYASAREGLSMFFYSQKVSIAYDEPVLKRNFTLLSHALNLPQKEISKEISESLSSRAKAFSYQPSPKIDALNLNKNKPKILFILETSKINKTYPIERFKELALILENFQICLLWHADEYKATTLYHALKHQRDVLLLPKLTLNEVKALLFKMDLIIGGDTGITHLAWALQKPSITLYGNTPMERFKLESPINVSLTGNSNANYHKKDFSIQNIEPKKIKECVLNILKEKE”, the protein production entry is “failed”.

Take “MAANRRNETASEAHGLDDILSAAAPRPRTALPNVATTVTTVAALYFGREVFLPIAIALLLTFALAPLVSALKRVGIPRIAAVIVSVLSAFAALALFSFVVATQVSELAQNIPVYQTNILAKIRSLKETGVGGGIIAKLSNVVERVGQEIDRQDATLPAATPDKQPREPVPVEIVARERPLEVLQNIVGPLISPLGSAGLIIVVVIFMLLEREDLRDRFIRLVGYGDLHRTTEALQDAAKRVGRYLLMQLVVNIVYAIPIAIGLWILGIPNALLWGLLALALRFVPYIGPAIGMLLPLFLALAVAPGWSLVLWTAALFVVMELVTGNVVEPWLYGSRTGLSPLAIIVAAIFWTWLWGPLGLVLSTPLTVCLVVLGRHVPQFEFLDVLFGNEPVLEPHARLYQRLLAGDPDEATDHAEEMLEEKYLVEFYDKVAIPALLLGERDRARGVMGDQQRRQVAASALALVANLEDDAKEEADGDDAPHVAEAEGEPGDAVEEEATELPDGTGLSVLCAGGRGDLDDAAAAMLAQVLEVQGATASKAGFAEMEPASIRRLELETIDTVVVGFLNRDSVKHARFLVRRLKRAKAALRVGIVFWSETGNGDKEAAAKLAQDINADFVAHGMVDAVTDALSHEPPVALKLVAKRRMRRPRAAPRKVPAAAAG”: the protein production result was “failed”.

For “MLNSAGKLIYGLCFLLVVCVNNAMAEVIHSERSLYRNILVEDNGDLRCLKFNVKSTKTRQSCLLKSQPQQLVFNYTKQLLTGLLVNPEPKHILIIGLGGGTMSNTLHQLLPDSYIDNVEIDESVIKVARQYFGFLENDQIKTYSQDGRVFVKRALLKKQEYDWIILDAFNGDYIPEHLMTKEYLEETKRLLSPQGILTANTFSSSQLYRYESATYKAVFGDYYQVSNPDNSNRIILARNSGLDENLYKELAAAEQSESITQLAIKLLAIGVEVKQLYKNIKSTATHQDWPDDSPVLTDQFSPANLLNIDVD”, the protein production result is recorded as “failed”.

On to “MVGEEDSERAQSSKMEIERESNLGSASVLMQSKVISVSNFFSIHRFHYPREKIVSFLFPSVFSRIMASYGEEREIQKNYWKEHSVGLSVEAMMLDSKASDLDKEERPEILAFLPPIEGTTVLEFGAGIGRFTTELAQKAGQVIAVDFIESVIKKNENINGHYKNVKFLCADVTSPNMNFPNESMDLIFSNWLLMYLSDQEVEDLAKKMLQWTKVGGYIFFRESCFHQSGDNKRKYNPTHYREPKFYTKLFKECHMNDEDGNSYELSLVSCKCIGAYVRNKKNQNQICWLWQKVSSDNDRGFQRFLDNVQYKSSGILRYERVFGEGFVSTGGLETTKEFVDMLDLKPGQKVLDVGCGIGGGDFYMAENFDVDVVGIDLSVNMISFALEHAIGLKCSVEFEVADCTKKEYPDNTFDVIYSRDTILHIQDKPALFRRFYKWLKPGGKVLITDYCRSPKTPSPDFAIYIKKRGYDLHDVQAYGQMLRDAGFEEVIAEDRTDQFMKVLKRELDAVEKEKEEFISDFSKEDYEDIIGGWKSKLLRSSSGEQKWGLFIAKRN”, for which the protein production result was “failed”.

Take “ELQAGFDKQEYMETLKINYKVHIALDKWAANTSVADPQDFDFVYRSPVVAFDNIWDLWKHKNKSVALISVQGSIQTEASFLANLYAAMIPAKGELQLDKDFKFTYQLADNPHAAVHVGWFVAMAYLSKTVVSKIDSCYNAGIKDFILTGHSQGGGITFLLNSYLENLKMQGRLPADIRFKTYCSAGPKPGNLFYAYEYEHMTAGGWAYNVVNTADWVPDVPFSVQTVTDFTAVNPFHGAKKAIRKQRFPANLALKHMYNKMSKPSERAQKNYQKYLGRMVSNAVKKQIPNFNAPEYYNSNYYVRTGNTIVLFPDEAYYKIYSNDPEDPNIWRHHLP”: the protein production entry was “failed”.

Consider “MKKRVQNKRFARTICDGNNPSQIATDLRDICEGEKTRRFSVANFARDNSLAILREICEELARTKKFLAKSLQIARDLQVQILFCGNFCDETYKDRDFAGWLKLYVTNGCENELLLLWLYEIVQEPRSKITTAKSFVVDVNANKTYAKFKPFILASQAFYLTRV”, for which the protein production result was “not failed”.

With “MSLKAVIFDLDGVITDTAEYHFLAWKHIAEQIDIPFDRDMNERLKGISREESLESILIFGGAETKYTNAEKQELMHRKNRDYQMLISKLTPEDLLPGIGRLLCQLKNENIKIGLASSSRNAPKILRRLAIIDDFHAIVDPTTLAKGKPDPDIFLTAAAMLDVSPADCAAIEDAEAGISAIKSAGMFAVGVGQGQPMLGADLVVRQTSDLTLELLHEEWEQYRIRESEGHHHHHH”, the protein production entry was “not failed”.

On to “MTRPTHPNALIWLLLSIAIIALDQATKAWVLTSLPEYIPVPVIHGFWNWYRSYNTGAAFSFLSDAGGWQMWLFIALALGISGLLTFWLSRTPRREWRSALPYALIIGGGIGNVIDRFLHGHVVDFIQWYVGSYYWPSFNLADSAIVAGAIGIGLLSLFDSKHSPKTP”, for which the protein production result is reported as “failed”.

For the sequence “MYEFNLVLLLLQQMCVFLVIAWLMSKTRLFIPLMQVTVRLPHKLLCYVTFSIFCIMGTYFGLHIEDSIANTRAIGAVMSGLLGGPVVGGLVGLTGGLHRYSMGGMTALSCMISTIVEGLLGGLVHSVLIRRGRPDKVFSPLTAGAITCVAELVQMLIILLIARPFDDALHLVSNIAAPMMVTNTVGAALFMRILLDKRAMFEKYTSAFSATALKVAASTEGILRQGFNEVNSMKVAQVLYQELDIGAVAITDREKLLAFTGIGDDHHLPGKPISSGYTLKAIETGEVVYADGNEVPYRCSLHPQCKLGSTLVIPLRGENQRVMGTIKLYEAKNRLFSSINRTLGEGIAQLLSAQILAGQYERQKALLTQSEIKLLHAQVNPHFLFNALNTIKAVIRRDSEQASQLVQYLSTFFRKNLKRPSEIVTLADEIEHVNAYLQIEKARFQSRLQVQLDVPSTLSRQKLPAFTLQPIVENAIKHGTSQLLDTGNVAIRARREGQHLMLDIEDNAGLYQPSAGSSGLGMSLVDKRLREHFGDDYGISVACEPDCFTRITLRLPLEEDA”, the protein production result was “failed”.

For “MSLSNIETVPASIEMKPNPTITVFERSPDGGRGLARDMPVRWALEEVGRPYHVRRLSFEAMKEASHLAYQPFGQIPSYEQGDLILFESGAIVMHIAQHHSGLLPEDQLRRARTVAWMFAALNTIEPSILNFTTVWLFERNEPWHEARLARTKEQLLKRLDELSAWLGDREWLEGSFSAADILMICVLRRLESSGILKDYGNLLAYVERGKARPAFKRAFDAQLAVFTAASKNEGHHHHHH”, the protein production result is recorded as “not failed”.

“MGENVLICLCGSVNSINISHYIIELKSKFDEVNVIASTNGRKFINGEILKQFCDNYYDEFEDPFLNHVDIANKHDKIIILPATSNTINKIANGICDNLLLTICHTAFEKLSIFPNMNLRMWENPVTQNNIRLLKDYGVSIYPANISESYELASKTFKKNVVAPEPYKVLEFI”: the protein production entry is recorded as “not failed”.

With “MIAAAWIAVTAALYAAARALHRRFPRPWLTPLLVVPGALAAVLLAARVPYPGYMRGGRLLVDLLGPATVAFALPLHRHAGLLRRHAAELCAGILAGCAVAVGSSFLLARALGLGRPLALSLAPRSITTPFAMQVAGDLGGVPALAAVFVILTAVVGLVVGQLLLRWLPLRSAVARGALFGMGAHAAGTAQAMELGRVEGAVAGVVMIVAGLGVLVATPLLRLAL”, the protein production result was “failed”.

For “MIDRPLEGKVAFITGAARGLGRAHAVRLAADGANIIAVDICEQIASVPYPLSTADDLAATVELVEDAGGGIVARQGDVRDRASLSVALQAGLDEFGRLDIVVANAGIAMMQAGDDGWRDVIDVNLTGVFHTVQVAIPTLIEQGTGGSIVLISSAAGLVGIGSSDPGSLGYAAAKHGVVGLMRAYANHLAPQNIRVNSVHPCGVDTPMINNEFFQQWLTTADMDAPHNLGNALPVELVQPTDIANAVAWLASEEARYVTGVTLPVDAGFVNKR”, the protein production result was “not failed”.

For “MRVVVTGATGFVGQQVVKALSDRGDQVVALVRSPGKAAKQFAGVPRVEWLGYTPKAAGDWFSALEGADAVIHLAGEPLANGRWTPQRKQEIYDSRVVGTQQLVQAIAQCQQRPRVLVSTSAIGYYGTSDTETFVETHAAGNDFLAKVCGDWEAAAQGVTELGVRLVILRFGIVLGEQGALAKLLLPFQLYLGGPLGSGQQWFSWIHQQDLVRLILTAVDQVGMQGVYNATAPEPLRMADFCRILAEVMQRPSWLPVPAPVLQLLLGEGADVVLKGQRVLPERTLATGFEFHYPNAKTALTNLLKPRYTEGSRLEHHHHHH”, the protein production result is “not failed”.

Consider “EIHHRKPHGPEAALENVDAKIAKLMGEGYAFEEVKRALEIAQNNVEVARSILREFAFPPPVSPRLNL”, for which the protein production entry is “failed”.

For “MGHHHHHHSHTGKTTFSATIHALEGGVVADCDVDAPNLHILLKPQILKAEDFIASKKARIMPEKCSSCGLCYDLCRFGAVVAEDGYYVDEKKCEGCAFCFNVCPERAIEMENVKTGDLYVSKTEWGYFVHARLKPGEENTGRLVTEVKNRAKEIAEESNAEFLIVDSAPGVGCPVMASLTGVDAAIIVTEPTVSGLSDMLRILELCEHFRIRPFVVVNKFDLNVNIASEIESYCSENGVEFAGRVPFDKAIPEQIANLNFPFSGKAADKMVEIWKKLRE”, the protein production entry is listed as “not failed”.
